Reference: paper PMC10119312, “Structural insights into RNase J that plays an essential role in Mycobacterium tuberculosis RNA metabolism” (Nature Communications, 2023)

Columns and labels:
crystal structure = molecular target: the molecule itself; assay: crystal structure
SEC = molecular target: the molecule itself; assay: SEC
[1] = molecular target: T1, Mtb-RNase J D85A (catalytically inactive) (Mycobacterium tuberculosis H37Rv, UniProt P9WGZ9 1-558, D85A); assay: X-ray crystal structure; settings: protein: recombinant; tags: N-terminal 6xHis-SUMO, removed by ULP1; chain copies: 2; single strand
T1 sequence: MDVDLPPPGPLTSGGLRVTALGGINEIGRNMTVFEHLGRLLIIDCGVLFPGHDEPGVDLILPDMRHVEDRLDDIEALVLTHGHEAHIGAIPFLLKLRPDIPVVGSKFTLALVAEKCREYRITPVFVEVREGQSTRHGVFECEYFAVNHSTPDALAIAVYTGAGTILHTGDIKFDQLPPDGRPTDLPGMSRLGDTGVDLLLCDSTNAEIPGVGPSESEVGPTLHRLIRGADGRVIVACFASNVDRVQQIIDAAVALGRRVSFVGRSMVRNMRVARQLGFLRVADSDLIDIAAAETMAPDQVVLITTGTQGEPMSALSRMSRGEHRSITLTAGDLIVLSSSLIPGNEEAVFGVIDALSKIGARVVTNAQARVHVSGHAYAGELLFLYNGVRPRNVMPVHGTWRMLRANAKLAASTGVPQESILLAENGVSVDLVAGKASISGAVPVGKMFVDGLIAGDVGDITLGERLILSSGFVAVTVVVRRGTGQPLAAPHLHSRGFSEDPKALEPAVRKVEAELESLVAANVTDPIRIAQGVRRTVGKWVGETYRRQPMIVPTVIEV

[2] = molecular target: T1, Mtb-RNase J D85A (catalytically …); assay: EMSA; settings: protein: recombinant; tags: N-terminal 6xHis-SUMO, removed by ULP1; chain copies: 2; label: 5'-FAM; single strand
Mtb-RNase J 1-375/D85A = molecular target: T2, Mtb-RNase J 1-375/D85A (Mycobacterium tuberculosis H37Rv, UniProt P9WGZ9 1-375, D85A); assay: EMSA; 0.5 uM RNA; binding abolished; settings: protein: recombinant; tags: N-terminal 6xHis-SUMO, removed by ULP1; single strand
T2 sequence: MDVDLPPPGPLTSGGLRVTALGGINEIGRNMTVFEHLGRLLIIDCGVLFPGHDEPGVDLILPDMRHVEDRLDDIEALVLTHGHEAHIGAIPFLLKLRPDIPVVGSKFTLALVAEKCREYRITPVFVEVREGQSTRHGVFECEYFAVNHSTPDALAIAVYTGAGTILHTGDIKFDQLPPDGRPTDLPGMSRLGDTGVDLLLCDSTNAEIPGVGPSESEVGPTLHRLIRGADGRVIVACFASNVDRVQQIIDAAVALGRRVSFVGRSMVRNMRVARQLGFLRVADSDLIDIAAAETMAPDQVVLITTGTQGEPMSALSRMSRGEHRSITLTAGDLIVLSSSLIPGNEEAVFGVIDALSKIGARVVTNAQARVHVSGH

B1: Mtb-RNase J (D85A), catalytically inactive mutant (enzyme)
chain: T1 sequence
notes: also called Mtb-RNase J D85A mutant; Mtb-RNase J/ssRNA (in complex with poly(A) ssRNA); not shown: 6xHis-sumo, N-terminal, cleaved
stoichiometry N (crystal structure): 2

B2: Mtb-RNase J truncated mutant 1-450 (domain or fragment)
chain: MDVDLPPPGPLTSGGLRVTALGGINEIGRNMTVFEHLGRLLIIDCGVLFPGHDEPGVDLILPDMRHVEDRLDDIEALVLTHGHEDHIGAIPFLLKLRPDIPVVGSKFTLALVAEKCREYRITPVFVEVREGQSTRHGVFECEYFAVNHSTPDALAIAVYTGAGTILHTGDIKFDQLPPDGRPTDLPGMSRLGDTGVDLLLCDSTNAEIPGVGPSESEVGPTLHRLIRGADGRVIVACFASNVDRVQQIIDAAVALGRRVSFVGRSMVRNMRVARQLGFLRVADSDLIDIAAAETMAPDQVVLITTGTQGEPMSALSRMSRGEHRSITLTAGDLIVLSSSLIPGNEEAVFGVIDALSKIGARVVTNAQARVHVSGHAYAGELLFLYNGVRPRNVMPVHGTWRMLRANAKLAASTGVPQESILLAENGVSVDLVAGKASISGAVPVGKMFVD
notes: also called truncated protein (1–450); not shown: 6xHis-sumo, N-terminal, cleaved
stoichiometry N (SEC): 2

B3: Mtb-RNase J truncated mutant 1-470 (domain or fragment)
chain: MDVDLPPPGPLTSGGLRVTALGGINEIGRNMTVFEHLGRLLIIDCGVLFPGHDEPGVDLILPDMRHVEDRLDDIEALVLTHGHEDHIGAIPFLLKLRPDIPVVGSKFTLALVAEKCREYRITPVFVEVREGQSTRHGVFECEYFAVNHSTPDALAIAVYTGAGTILHTGDIKFDQLPPDGRPTDLPGMSRLGDTGVDLLLCDSTNAEIPGVGPSESEVGPTLHRLIRGADGRVIVACFASNVDRVQQIIDAAVALGRRVSFVGRSMVRNMRVARQLGFLRVADSDLIDIAAAETMAPDQVVLITTGTQGEPMSALSRMSRGEHRSITLTAGDLIVLSSSLIPGNEEAVFGVIDALSKIGARVVTNAQARVHVSGHAYAGELLFLYNGVRPRNVMPVHGTWRMLRANAKLAASTGVPQESILLAENGVSVDLVAGKASISGAVPVGKMFVDGLIAGDVGDITLGERLILSS
notes: also called C-terminal truncation (1–470); C-terminal domain-depletion protein (1-470); not shown: 6xHis-sumo, N-terminal, cleaved
stoichiometry N (SEC): 2

AAAAAAA (ssRNA) [7-nt poly(A) ssRNA]
binding result [1]: binds

AAAAAAAAA (ssRNA) [9-nt poly(A) RNA]
binding result [2]: binds

UUCCGUUUAUUCAUACUUCA (ssRNA) [20-nt RNA (called poly(U) in legends; Methods print a mixed sequence)]
binding result (Mtb-RNase J 1-375/D85A): no binding
